Experimental data published in the nanobody polyreactivity screen of Harvey et al. (2022).

Assay: yeast display, Sf9 membrane polyspecificity reagent, FACS + sequencing; frameworks hold sequencing errors
Outline: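 Genes from sorted yeast were amplified by colony PCR, read by MiSeq 2 × 250 sequencing and filtered on CDR length. These cells carried a synthetic nanobody library in Saccharomyces cerevisiae BJ5465 and were sorted by FACS into low and high (top ~1%) gates on anti-HA and streptavidin fluorescence. Polyreactivity is labelled according to the gate of origin.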

| Sequence | polyreactivity (PSR sort gate) |
| --- | --- |
| QVQLVESGGGLVQAGGSLRLSCAASGITLYRYVMGWYRQAPGKERELVADISGRGTSTYYADSVKGRFTISRDNAKNTVYLQMNSLKPEDTAVYYCNAEYTKTGALVIPYTYYYAEDYWGQGTQVTVSS | low polyreactivity |
| QVQLVESGGGLVQAGGSLRLSCAASGLTFRYYAMGWYRQAPGKERELVAAITRRGSTYYADSVKGRFTISRDNAKNTVYLQMNCLKPEDTAVYYCATVTGFHSSPLRDLDYWGQGTQVTVSS | high polyreactivity |
| QVQLVESGGGLVQAGGSLRLSCAASGGTFYPYAMGWYRPAPGKERELVAAISASDDNTYYADSVKGRFTISRDNAKNTVYLQMNSLKPEDTAVYYCAKRSYFYPYYYWGQGTQVTVSS | high polyreactivity |
| QVQLVESGGGLVQAGGSLRLSCAASGSIFRGYAMGWYRQAPGKERELVAAITSSGGSTNYADSVKGRFTISRDNAKNTVYLQMNSLKPEDTAVYYCNATSEEVAEYDYWGQGTQVTVSS | low polyreactivity |
| QVQLVESGGGLVQAGGSLRLSCAASGIFSYYAMGWYRQAPGKERELVATISRRGSSTYYADSVKGRFTISRDNAKNTVYLQMNSLKPEDTAVYYCNADIGWGRFSQSFDYWGQGTQVTVSS | low polyreactivity |
| QVQLVESGGGLVQAGGSLRLRCAASGSIFVYYAMGWYRQAPGKERELVAAITWRGDNTYYADSVKGRFTISRDNAKNSVYLQMNSLKPEDTAVYYCAADSYTSIFDYWGQGTQVTVSS | low polyreactivity |
| QVQLVESGGGLVQAGGSLRLSCAASGSILNSYAMGWYRQAPVKERELVARITGDGGITYYADSVKGRFTISRDNAKNTVYLQMNSLKPEDTAVYYCNAEVVALRRDTIYDYWGQGTQVTVSS | low polyreactivity |
| QVQLVESGGGLVQAGGSLRLSCAASGSIFPQNGMGWYRQAPGKERELVAAISSNGDNTYADSVKGRFTISRDNAKNTVYLQMNSLKPEDTAVYYCAAERRRTAGGVYHPWEDYWGQGTQVTVSS | low polyreactivity |
| QVQLGESGGGLVQAGGSLRLSCAASGRIFVKYAMGWYRQAPGKERELVAAISKSGGSTYYADSVKGRFTISRDNAKKTVYLQMNSLKPEDTAVYYCATRSREQYSVSYRLDFWGQGTQVTVSS | low polyreactivity |
| QVQLVESGGGLVQAGGSLGLSCAPSGYTFVPYVMGWYRQAPGKERELVAAISRGGSTYYADSVKGRFTISRDHAKNTVYLQMNSLKPEDTAVYYCNAGWFKYYPNLQAFKYWGQGTQVTVSS | high polyreactivity |
| QVQLVESGGGFVQAGGSLRLSCAASGRIFLWNAMGWYRQAPGKERELVAGIRWSTGSTYYADSVKGRFTISRDNAKYTVSLQMYSLKRDDTAVYYCNARSLATGSKVPARGYWGQGTQVTVSS | high polyreactivity |
| QVQLVESGGGLVQAGGSLRLSCAASGITFYYYAMGRYRQAPGKERELVAAIDTDGSTYYADSVKGRFTISRDNAKNTVYLQMNSLKPVDTAVYYCNAVGSRRSIPRVYYWGQGTQVNVSS | high polyreactivity |
| QVQLVESGGGLVQAGGRLRLSCAASGRIFTPNPMGWYRQAPGKERELVAAITTSAGRTYYADSVKGRFSISRDNAKNTVYLQMNSLKPEDTAVYYCAARYFPIRGYSWGQGSQVTVSS | high polyreactivity |
| QVQLVESGGGIVQAGGSLRLSCAASGRIFRSYTMGWYRQAPGKERELVAAISWTGGRTYYADSVKGRFTISRDNAKNTVYLQMNSLKPEDTAVYYCAATNRYYIYDYWGQGTQVTVSS | high polyreactivity |
| QVQLVESGGGLVQAGGSLRISCAASGFSFVWYAMGWYRQAPGKERELVAAINWSGGHTYYADSVKGRFTISRDNAKNTVYLQMNSQKPVETAVYYCNADSLWYWFYPYNYWGQGTQVTVSS | low polyreactivity |
| QVQLVESGGGLVQAGGSLRIISAASGSTFTRYTMGWYRQAPGKEMEFVAAISFSGGSTYYADSVKGRFTIARDNAKNTVYLEMNSLKPEDTAVYYCAASAHCYRPARDYWGQGTQVTVSS | low polyreactivity |
| QVQLVESGGGLVQAGGSLRLSCAASGSTFACNAMGWDRQAPGKERELVAAISWSGGSTYYADSVKGRFTISRDNAKNTVYLQMNSLKPEDTAVYYCAARRYASRTGYLYDFWGQGTQVTVSS | high polyreactivity |
| QVQLVESGGGLVQAGGSLRLSCAASGSIFKNYAMGWYRQAPGKERELVATISSGDSTYYADSVKGRFTISRDNAKNTVYLQMNSLKPEDTAVYYCNTTEHNYVSSFEYGYWGQGTHVTVSS | low polyreactivity |
| QVQLVESGGGLVQAGGSLRLSCAASGFIFPYYDMGWYRQAPGKERELVADIDSSGGTTYYADSVKGRFTISRDNAKNTVYLQMNSLKPEDTAVYYCAATYQAWTWYPYYVIYDYWGQGTQVTVSS | high polyreactivity |
| QVHLVESGGGLDQAGGSLRLSCAASGIIFFKNAMGWYRPAPGKERELVAAISSTDTRTYYADSVKGRFTISRDNAKNTVYLQKNSLKPEDTAVYYCAADYIYYYEQYLWYTYDYWGQGTQVTLSS | high polyreactivity |
| QVQLVESGGGLVQAGGSLRLSCAASGFIFRWNTMGWYRQAPGKERELVAAISSRGGSTYYADSVKGRFKISRDNAKNTVYLQMNSLKPEDTAVYYCNAVRGDEYWGQGTQVTVSS | high polyreactivity |
| QVQLVESGGGLVQAGGSLRLSCAASGLTFHQNAMGWYRKAPGKDRELVAAISRRGGSTYYADSVKGRFTFSRDNAKNTVYLQMNSLKPEDTAVYYSNTRGKSGLWCYNYWGQGTQVTVSS | high polyreactivity |

| Sequence | polyreactivity (PSR sort gate) |
| --- | --- |
| QVQLVESGGGLVQAGGSLRLSCAASGRIFRRYVMGWYRQAPGKERELVARIRIRDSNTYYADSVKGRFTISRDNAKNTVYLQMNSLKPEDTAVYYCAVVANYVYSKYDYWGQGTQVTVSS | low polyreactivity |
| QVQLVESGGGLVQAGGSLRLSCAASGGIFPLYTMGWYRQATGKERELVASNTGSRASTYYADSVKGRFTISRDKAKNTVYLPMNSLNPEDTGVYDCKADVYVYSVTSHYPSYRLDYWGQGTQVTVAS | high polyreactivity |
| QVQLVESGGGLVQAGGSLRLSCAASGSTFYGYAMGWYRQAPGKERELVASITTRGGRTNYADSVKGRFTISRDNAKNTVYLQMNSLKPEDTAVYYCATYSYVTRYARWGEYDYWGQGTQVTVSS | high polyreactivity |
| QVQLVESGGGLDQARGSLRLSCAASGLTFVEYAMGWYRQAPGKESELVADITISGGRTYYADSVKGRFTISRDNAKYTVYLQMNSLKPEDTAVYYCNAQSYLGVTHRGYIKNGYDYWGQGTQVTVSS | low polyreactivity |
| QVQLVESGGGLVQAGGSLRLSCAASGSIFGVNAMGWYRQAPGKERELVAGITTGGSTKYADSVKGRFTISRDNAKNTVYLQMNSLKPEDTAVYYCAATGKWYHFYHYGYWGQGTQVTVSS | low polyreactivity |
| QVQLVESGGGLVQAGGSLRLSCAASGSIFSRYTMGWSRQAPGKERELVASISRRGGRTYYADSVKGRFTISRDNAKNTVYLQMNSLKPEDTAVYYCNTRTPAEYTPYGYDYWGQGTQVTVSS | high polyreactivity |
| QVQLVESGGGLFQAGGSLRLSCAASGIIFYHYAMGWYRQAPGKERELVAAITRSGSRTYYADSVKGRFTISRDNAKNTVYLQLNSLKPEDTAVYYCAYRRRWYGIRNYYWGQGTQVTVSS | high polyreactivity |
| QVQLVESGGGLVQAGGSLRLSCAASGFTFYIYAMGWYRQAPGKERELVAAISSGGGRTYYADSVKVRFTISRDNAKNTVYLQMTSLKPEDTAVYYCAARGRAFSYKNYGSDYWGQVTQVTVSS | high polyreactivity |
| QVQLVESGGGLVQAGGSLRLSCAASGRTFEIYAMGWYRQEPGKERELVAAITSGGSTYYADSVKGRFTISRDNAKNTVYLQMNSLKPEDTAVYYCNAYLYYDAHGVDYWGQGTQVTVSS | high polyreactivity |
| QVQLVESGGGLVQAGGSLRLSCAASGFIFRDNAMGWYRQAPGKERELVAAISSRGGSTYYADSVKGRFTISRDNAKNTVYLQMNSLKPEDTAVYYCAKRPYKSRVQLDSWGQGTQVTVSS | high polyreactivity |
| QVQLVESRGGLVQAGGSLRLSCAASGFTFQRYAMGWYRQAPGKERELVAAINRSGGNTHYADSVKGRFTISRDNAKNTVYLQMNSLKPDDTAVYYCAVGTPASVGHYTYDYWGQGTQVTVSS | high polyreactivity |
| QVQLVESGGGIVQAGGSLLLSCAASGSTIIRYVKGWYRQAPGTERELVAGINSSAGSTNYADSVKGRFTISRDNAKNTVYLQMISLKPEDTAVYYCNADLRSEYDYWGQGTQVTVSS | low polyreactivity |
| QVQLVESGGGLVQAGGSLRLSCAASGRTFVYNAMGWYRQAPGKERELVAAIDGGGDRTYYADSVKGRFTISRDNAKNTVYLQMNSLKPEDTAVYYCARDPGDTYYYSYPEGDYWGLGTQVTVSS | low polyreactivity |
| QVQLVESGGRLVQAGGSLRLSCAASGFIFYQYAMGWYRQAPGKERELVAVISRTGSTSYADSVKGRFTISRDNAKNSVYLQLNSLKAEDTAGYYCAKKRALRYYGYDYWGQGTQVTVSS | high polyreactivity |
| QVQLVESGGGLVQAGGSLRLSCAASGRMFKINAMGCYRQAPGKERELVASIRTSSGSTYSADSVKGRFTLSRDNAKNTVYLQMNSLKPEDTAVYYCATQYRYYNHFVTPFTRYGYWGQGTQVTVSS | high polyreactivity |
| QVQLVESGGGLVQAGGSLRLSCAASGIIFYAYAMGWYRQAPGKEREFVAAINNSGGRTYYADSVKGRFTISRDNAKNTVYLQMNSLKPEDTAVYYCAVYSYYRRTYRREMDYWGQGTQVTVSS | high polyreactivity |
| QVQLVESGGCLVQAGGSLRLSCAASGSIFRYYVMGWYRQAPGKERELVAAISSRGGSTYYADSVKGRFTISRDNAKNTVYLQMNSLKPEDTAVYYCAAYRAYSTAVGMEYWGQGTQVTVSS | high polyreactivity |
| QVQLVESGGGLVQAGGSLRLSCAASGFIFLAYTMGWYRQAPGKERELVAAISASGGRTYYADSVKGRFTISRDNAKNTVYLQMNSLKPEDTAVYYCAAAGGRFIRYGYWGQGTQVTVSS | high polyreactivity |
| QVQLVESGGGLVQAGGSLRLRCAASGSTFKFYAMGWYRQAPGKEREFVAAITGSGGSTYYADSVKGRFTISRDNAKNTVYLQMNSLKPEDTAVYYCNTTPVLQLYYWGQGTQVTVSS | low polyreactivity |
| QVQLVESGGGLVQAGGSLRLSCAASGITFSYNVMGWYRQAPGKERELVAAISDGGSTYYADSVKGRFTISRDNAKNTVYLLMNSLKPEDTAVYDCAKGYPYTYSQQVIYDYYYWGQGTQVTVSS | low polyreactivity |
| QVQLVESGGGLVQARGSLRLSCAASGRIFSYYAMGWYRQAPGKERELVATISKSGGSTYYADSVKGRFTISRDNAKNTVYLQMNSLKPEDTALYYCAAVGPYRWYDYWGQGTQVTVSS | high polyreactivity |
